Assays:
[1] = target: T1, Muc1 mucin carrying the CA6 sialoglycotope (human, UniProt P15941 24-1255, sialylated O-linked carbohydrate carrying the CA6 epitope; positions not stated); assay: flow cytometry on HPAC cells, apparent Kd
T1 construct: whole, on cells; Target of DS6 on CA6-positive human cell lines (flow cytometry) and in their lysates (dot blots, immunoprecipitation); also called CA6 antigen; DS6 antigen
Experimental: (§1) Human cell lines were obtained from the American Type Culture Collection (ATCC) with the exception of OVCAR5 (Kearse et al., Int. J. Cancer 88(6):866-872 (2000)), OVCAR8 and IGROV1 cells (M. Seiden, Massachusetts General Hospital). All cells were grown in RPMI 1640 supplemented with 4 mM L-glutamine, 50 U/ml penicillin, 50 μg/ml streptomycin (Cambrex Bio Science, Rockland, Me.) and 10% v/v fetal bovine serum (Atlas Biologicals, Fort Collins, Colo.), referred hereafter as culture media. Cells were maintained in a 37° C., 5% CO₂ humidified incubator.
(§2) Cells ([…]) were incubated, on ice for 3-4 h, with serially diluted concentrations of the DS6 antibody prepared in FACS buffer (2% goat serum, RPMI) into 96-well plates. The cells were spun down in a table top centrifuge at 1500 rpm for 5 min at 4° C. After removing the media, the wells were then refilled with 150 μl of FACS buffer. The wash step was then repeated. FITC-labeled goat anti-mouse IgG (Jackson Immunoresearch) was diluted 1:100 to FACS buffer and incubated with the cells for 1 h on ice. The plate was covered in foil to prevent photobleaching of the signal. After two washes, the cells were fixed with 1% formaldehyde and analyzed on a flow cytometer.

[2] = target: T1, Muc1 mucin carrying the CA6 …; assay: flow cytometry on CaOV3 cells, apparent Kd
[3] = target: T1, Muc1 mucin carrying the CA6 …; assay: flow cytometry on Caov-3 cells
[4] = target: T1, Muc1 mucin carrying the CA6 …; assay: flow cytometry on KB cells, apparent Kd
[5] = target: T1, Muc1 mucin carrying the CA6 …; assay: flow cytometry on OVCAR5 cells, apparent Kd
Experimental: as §2

[6] = target: T1, Muc1 mucin carrying the CA6 …; assay: flow cytometry on MCF7 cells, apparent Kd
[7] = target: T1, Muc1 mucin carrying the CA6 …; assay: flow cytometry on T98G cells, apparent Kd
Experimental: as §2

[8] = target: T1, Muc1 mucin carrying the CA6 …; assay: flow cytometry on Caov-4 cells, apparent Kd
Experimental: as §2

[9] = target: T1, Muc1 mucin carrying the CA6 …; assay: flow cytometry on T-47D cells, FITC anti-mouse IgG
Experimental: The fluorescence of cell lines incubated with the DS6 primary antibody and FITC conjugated anti-mouse IgG(H+L) secondary antibodies was measured by flow cytometry.
as §2

[10] = target: T1, Muc1 mucin carrying the CA6 …; assay: flow cytometry on PC-3 cells, apparent Kd
Experimental: as §1, §2

[11] = target: T1, Muc1 mucin carrying the CA6 …; assay: flow cytometry on CAMA-1 cells, apparent Kd
Experimental: as §1, §2

[12] = target: T1, Muc1 mucin carrying the CA6 …; assay: flow cytometry on KB cells, apparent Kd; remark: listed apart in the source
[13] = target: T1, Muc1 mucin carrying the CA6 …; assay: flow cytometry on Caov-3 cells, apparent Kd
[14] = target: T1, Muc1 mucin carrying the CA6 …; assay: flow cytometry on WISH cells, direct binding
[15] = target: T1, Muc1 mucin carrying the CA6 …; assay: competition flow cytometry on WISH cells; competitor 2 nM biotin-muDS6, streptavidin-DTAF
Experimental: To confirm that the huDS6 versions retains the affinity of muDS6, competitive binding experiments were conducted. […] In some cases, the experimentally measured apparent Kd can vary simply because of the secondary reagent used to indirectly detect binding.

[16] = target: T1, Muc1 mucin carrying the CA6 …; assay: flow cytometry on Hs766T cells, apparent Kd
Experimental: as §1, §2

[17] = target: T1, Muc1 mucin carrying the CA6 …; assay: flow cytometry on SU.86.86 cells, apparent Kd
Experimental: as §2

[18] = target: T1, Muc1 mucin carrying the CA6 …; assay: flow cytometry on HPAF-II cells, apparent Kd
[19] = target: T1, Muc1 mucin carrying the CA6 …; assay: flow cytometry on WISH cells, apparent Kd
[20] = target: T1, Muc1 mucin carrying the CA6 …; assay: flow cytometry on BT549 cells, apparent Kd

B1: murine DS6 anti-CA6 monoclonal antibody (antibody, IgG1, V domains shown)
VH: QAYLQQSGAELVRSGASVKMSCKASGYTFTSYNMHWVKQTPGQGLEWIGYIYPGNGATNYNQKFKGKATLTADPSSSTAYMQISSLTSEDSAVYFCARGDSVPFAYWGQGTLVTVSA
VL: QIVLTQSPAIMSASPGEKVTITCSAHSSVSFMHWFQQKPGTSPKLWIYSTSSLASGVPARFGGSGSGTSYSLTISRMEAEDAATYYCQQRSSFPLTFGAGTKLELKR
notes: Whole murine monoclonal IgG from the DS6 hybridoma (ATCC PTA-4449); the 3' heavy chain cloning primer was BamIgG1 and the light chain primer was kappa; also called DS6 antibody; muDS6
[1]
  Kd: 23.5 nM
[2]
  Kd: 5.48 nM
[3]
  Kd: 2.02 nM
[4]
  Kd: 1.11 nM
[5]
  Kd: 1.47 nM
[6]
  Kd: 2.89 nM
[7]
  Kd: 0.177 nM
[8]
  Kd: 4.04 nM
[9]
  Kd: 2.59 nM
[10]
  Kd: 0.136 nM
[11]
  Kd: 2.33 nM
[12]
  Kd: 0.111 nM
[13]
  Kd: 5.48 nM
[14]
  Kd: 1.93 nM
[15]
  EC50: 12.2 nM
[16]
  Kd: 2.32 nM
[17]
  Kd: 1.04 nM
[18]
  Kd: 2.81 nM
[19]
  Kd: 2.38 nM
[20]
  Kd: 1.05 nM
